Positions count from the first letter of the chain named.
B1: 16-TC4-I-C11 (scFv)
scFv: QVQLVQSGAEVKKPGSSVKVSCKASGGTFSSYAISWVRQAPGQGLEWMGWISAYNGNTNYAQKLQGRVTMTTDTSTSTAYMELRSLRSDDTAVYYCARVTPPGWLGNMDVWGKGTTVTVSSGGSGGSGGSGGSSYELMQSPSVSVAPGQTARITCGGRDIGSKSVHWYQQKPGQAPVLVVYDDSDRPSGIPERLSGSNFGNEATLTISRVEAGDEGDYFCQVWDSSTDVVFGGGTKVTVL
notes: His-tagged
B2: 4-TC4-I-G08 (scFv)
scFv: QVQLVQSGGGVVQPGRSLRLSCAASGFTFSSYAMHWVRQAPGKGLEWVAVISYDGSNKYYADSVKGRFTISRDNAKNSLYLQMNSLRDEDTAVYYCARDESFDYGVDVWGKGTTVTVSSGGSGGSGGSGGSSSELTQDPAVSVALGQTVRITCQGDSLRSYYASWYQQKPGQAPVLVIYGKNNRPSGIPDRFSGSSSGNTASLTITGAQAEDEADYYCNSRDSSGNHLVVFGGGTKLTVL
notes: His-tagged
B3: 42-TC4-VII-G08 (scFv)
scFv: B2 scFv with A75S, S78T, D88A, E100L, F102Y, V106F, V108Y, K111Q, T114L, L237V
notes: His-tagged
B4: 49-TC4-XVI-F01 (scFv)
scFv: QVQLVESGGGVVQPGRSLRLSCAASGFTFSSYAMHWVRQAPGKGLEWVAVISYDGSNKYYADSVKGRFTISRDNSKNTLYLQMNSLRAEDTAVYYCARDSTQDYGMDVWGQGTMVTVSSGGSGGSGGSGGSSSELTQDPAVSVALGQTVRITCQGDSLRNYYASWYQQKPGQAPVLVFYGKNNRPSGIPDRFSGSSSGNTASLTITGAQAEDEADYYCNSRDSSGNHLVVFGGGTKLTVL
notes: His-tagged
B5: 32-TC1.2-I-F07-6 (scFv)
scFv: QVQLVQSGAEVKKPGESLKISCKGSGYSFTSYWIGWVRQMPGKGLEWMGIIYPGESDTRYSPSFQGQVTISADKSISTAYLQWSSLKASDTAMYYCARRNYYDRSGYVDAFDIWGQGTMVTVSSGGSGGSGGSGGSSSELTQDPAVSVALGQTVRITCQGDSLRRFYASWHQQKPGQAPIVVMYAENNRPSGIPDRFSGSSSGNTASLTITGAQAEDEATYYCNSRDSSGNRHVFGTGTKLTVL
notes: His-tagged
B6: 39-TC6-IV-B08 (scFv)
scFv: QVQLVESGGGVVQPGGSLRLSCAASGFTFSSYAMHWVRQAPGKGLEWVAVISYDGSNKYYADSVKGRFTISRDNSKNTLYLQMNSLRAEDTAVYYCARDGHPYYYGMDVWGQGTTVTVSSGGSGGSGGSGGSQSALTQPASVSGSPGQSITISCTGTSSDVGDYNYVSWYQHHPGKAPKLMIYDVSNRPSGVSNRFSGSKSGNTASLTISGLQAEDEADYYCGSYTGSDTWVFGGGTKVTVL
notes: His-tagged; also called 1885
B7: 37-TC7-VII-D05 (scFv)
scFv: QMQLVQSGGGVVQPGRSLRLSCAASGFTFSSYAMHWVRQAPGKGLEWVAVISYDGSNKYYADSVKGRFTISRDNSKNTLYLQMNSLRAEDTAVYYCARDALWDTATFDYWGQGTLVTVSSGGSGGSGGSGGSSSELTQDPAVSVALGQTVRITCQGDSLRSYYASWYQQKPGQAPVLVIYGKNNRPSGIPDRFSGSSSGNTASLTITGAQAEDEADYYCNSRDSSGNPWVFGGGTKLTVL
notes: His-tagged
B8: 13-TC7-V-H10 (scFv)
scFv: QVQLQQWGAGLLKPSETLSLTCAVYGGSFSGYYWSWIRQPPGKGLEWIGEINHSGSTNYNPSLKSRVTISVDTSKNQFSLKLSSVTAADTAVYYCARSRRPYWYFDLWGRGTLVTVSSGGSGGSGGSGGSQSALTQPASVSGSPGQSITISCTGTSSDVGGYNSVSWYRQHPGKAPKLMIYDVTNRPSGVSNRFSGSKSGNTASLTISGLQAEDEADYYCSSSSISATWVFGGGTKLTVL
notes: His-tagged
B9: 60-TC7-VII-C02 (scFv)
scFv: QVQLQQWGAGLLKPSETLSLTCAVYGGSFSGYYWSWIRQPPGKGLEWIGEINHSGSTNYNPSLKSRVTISVDTSKNQFSLKLSSVTAADTAVYYCARSPLWFGPPDAFDIWGQGTMVTVSSGGSGGSGGSGGSQSALTQPPSASGSPGQSVSISCTGTSSDVGGYNYVSWYQQHPGKAPKLIIYDVDKRPSGIPERFSGSNSGNTATLTISGTQAMDEADYYCQAWDSSTEVVFGGGTKVTVL
notes: His-tagged
B10: 53-TC7-VI-B06 (scFv)
scFv: EVQLLESGGGVVQPGRSLRLSCAASGFTFSSYGMHWVRQAPGKGLEWVAVISYDGSNKYYADSVKGRFTISRDNSKNTLYLQMNSLRAEDTAVYYCAKGELELTNWGQGTLVTVSSGGSGGSGGSGGSSYELTQPPSVSVAPGQTARITCGGNNIGSKSVHWYQQKSGQAPVLVVYDDTDRPSGTPERFSGSNSGNTATLTISGTQAMDEADYYCQAWDSSTAVFGTGTKVTVL
notes: His-tagged
B11: 50-TC7-III-A11 (scFv)
scFv: QVQLVQSGAEVKRPGASVKVSCKASGYTFTSYYMHWVRQAPGQGLEWMGIINPSGGSTSYAQKFQGRVTMTRDTSTSTVYMELSSLRSEDTAVYYCAIEPGYCSGGSCYPDAFDIWGQGTTVTVSSGGSGGSGGSGGSQSVLTQPPSASGTPGQRVTISCSGSSSNIGSDYVYWYQRVPGTAPKLLIYRDNQRPSGVPDRFSGSKSGTSASLAISGLRSDDEADYYCAAWDDSLSGWVFGGGTKVTVL
notes: His-tagged; also called 1985
B12: 47-TC7-III-D10 (scFv)
scFv: QVQLVQSGAEVKKPGASVKVSCKASGYTFTSYGISWVRQAPGQGLEWMGWISAYNGNTNYAQKLQGRVTMTTDTSTSTAYMELRSLRSDDTAVYYCARDSSSWYYYYGMDVWGQGTTVTVSSGGSGGSGGSGGSSYELTQPPSVSVSPGQTARISCSGDALPNQYAYWYQQKPGQAPVLVIYQDSERPSGIPERFSGSSSGTTVTLTISGVQAEDEADYYCQSADTYGTSWVFGGGTKLTVL
notes: His-tagged
B13: 15-TC7-I-D07 (scFv)
scFv: QVQLQQWGAGLLKPSETLSLTCAVYGGSFSGYYWSWIRQPPGKGLEWIGEINHSGSTNYNPSLKSRVTISVDTSKNQFSLKLSSVTAADTAVYYCARVSRSRGAFDIWGQGTMVTVSSGGSGGSGGSGGSQSALTQPASVSGSPGQSITISCTGTNSDVGAYNYVSWYQQHPGKAPKLMIYEVTNRPSGVSNRFSGSKSGNTASLTISGLQAEDEADYYCSSYTSSGTWVFGGGTKLTVL
notes: His-tagged

Assays:
[1] = biological target: T1, human CD70, recombinant, N-terminally biotinylated (residues 39-193) (human, UniProt P32970 39-193, N-terminal biotin); experiment: CD27 blocking ELISA, 3 µM scFv, strep/HRP
T1 construct: range 39-193; the same entry is used there; also called biotinylated human CD70; CD70 biotin
T1 sequence (looked up): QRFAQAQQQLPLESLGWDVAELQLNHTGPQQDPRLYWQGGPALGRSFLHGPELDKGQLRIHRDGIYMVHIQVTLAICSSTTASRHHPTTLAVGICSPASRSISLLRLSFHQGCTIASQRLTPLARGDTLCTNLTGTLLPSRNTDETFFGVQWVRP

[2] = biological target: T2, CD70 on cells (CHO-CD70, JVM-3, U266, Raji, THP-1, T cells) (human, UniProt P32970 1-193); experiment: 1.25 µg/mL scFv on U266 cells
T2 construct: whole, on cells; also called cell-surface CD70
T2 sequence (looked up): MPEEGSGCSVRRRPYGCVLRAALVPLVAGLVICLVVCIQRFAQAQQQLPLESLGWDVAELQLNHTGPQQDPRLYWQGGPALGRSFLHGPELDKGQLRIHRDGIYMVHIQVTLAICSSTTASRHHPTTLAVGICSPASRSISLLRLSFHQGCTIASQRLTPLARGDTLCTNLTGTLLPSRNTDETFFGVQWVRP
Summary of the method: (§1)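 Human scFv antibodies came from panning a naïve human library against the CD70 extracellular domain (aa39-193). Binding was recorded for each tumour cell line, both high CD70 expressors (CHO-CD70, JVM3, U266) and low CD70 expressors (CHO WT, K562). No detection method is stated.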

[3] = biological target: T1, human CD70, recombinant, N-terminally …; experiment: SPR
Summary of the method: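 Human scFv antibodies came from panning a naïve human library against the CD70 extracellular domain (aa39-193). Their affinity (Kd) for recombinant, N-terminally biotinylated human CD70 was measured by surface plasmon resonance (SPR) analysis.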

[4] = biological target: T2, CD70 on cells (CHO-CD70, JVM-3, U266, …); experiment: 1.25 µg/mL scFv on CHO-CD70 cells
Summary of the method: as §1

[5] = biological target: T2, CD70 on cells (CHO-CD70, JVM-3, U266, …); experiment: 1.25 µg/mL scFv on JVM-3 cells
Summary of the method: as §1

[6] = biological target: T1, human CD70, recombinant, N-terminally …; experiment: CD27 blocking ELISA, 3 µM scFv, anti-His/HRP
Description: Human scFv antibodies binding CD70 were generated by panning a naïve human library with the extracellular domain (aa39-193) of CD70. 53 antibodies were identified. The ability of CD27 to block CD70 binding of the identified antibodies was measured by ELISA using two different assays. In the first assay, CD27 and his-tagged scFv anti-CD70 binders were simultaneously added to surface bound CD70, and the ability of the scFv binders to bind CD70 was detected with anti-His HRP. In the second assay, plate-bound CD70 was pre-incubated with CD27 for 30 minutes, and then additional CD27 and the his-tagged scFv anti-CD70 binder was added. The ability of the scFv binders to bind CD70 was detected with anti-His HRP. FIG. 34 is a schematic of the two different CD27 blocking assays. CD70 affinity was also measured by SPR analysis. scFv antibodies were also tested for their ability to bind tumor cell lines with high (CHO-CD70, JVM3, and U266) and low levels (CHO WT and K562 of CD70 expression. Results for 39 antibodies are shown in Table 1 below.

Row | Binder | strep/HRP [1] | cell binding [2] | Kd [3] | cell binding [4] | cell binding [5] | anti His/HRP [6]
1 | B1 | 1.43 | 51000 | 40.2 nM | 660000 | 103000 | 2.1
2 | B2 | 1.03 | 23500 | 1410 nM | 387000 | 34000 | 2.29
3 | B3 | 1.11 | 13100 | 179 nM | 364000 | 33900 | 2.34
4 | B4 | 1.29 | 2980 | 1060 nM | 134000 | 5410 | 2.12
5 | B5 | 0.113 | 20700 | 7.41 nM | 553000 | 57300 | 2.42
6 | B6 | 0.268 | 35900 | 2890 nM | 52200 | 25300 | 2.97
7 | B7 | 0.655 | 15900 | 5640 nM | 111000 | 11000 | 2.28
8 | B8 | 1.38 | 34300 | 66.9 nM | 601000 | 87500 | 1.97
9 | B9 | 1.58 | 5040 | 135 nM | 458000 | 10800 | 1.27
10 | B10 | 1.44 | 1170 | 235 nM | 12200 | 1830 | 1.38
11 | B11 | 0.868 | 45000 | 4190 nM | 122000 | 12200 | 2.25
12 | B12 | 1.55 | 19000 | 18.6 nM | 313000 | 34700 | 1.5
13 | B13 | 1.45 | 42900 | 1750 nM | 271000 | 50900 | 2.5
